Source: publication PMC10191332

Target: recombinant His-gH/gL (HCMV), purified (HCMV) (UniProt P12824)
Assay: BLI

Substance: EphA2 extracellular domain (27-534), purified (from UniProt P29317 27-534) (domain or fragment)
- Kd: 36.4 nM
